Where “and” joins values, the source holds several entries; their conditions need not be identical. Equal entries are not always repeated.

Test [1] concerns the target human MCH1 receptor (MCH1) encoded by plasmid TL231 (pEXJ.HR-TL231) (human). The test can be described thus: cell-based or functional assay.
The target is the same in test [2]. The test can be described thus: radioligand binding, membranes of Cos-7 cells transfected with MCH1, 0.1 nM radioligand, filtration.
For test [3] the target is unchanged. Kind of test: radioligand binding, membranes of Cos-7 cells transfected with MCH1, 0.1 nM radioligand, filtration; nonspecific binding defined with 10 µM unlabeled MCH.
Test [4] has as its target mutant (short form) human MCH1 receptor encoded by plasmid BO120 (human). The test can be described thus: cell-based or functional assay.
Test [5] addresses human MCH1 receptor (MCH1) encoded by plasmid TL231 (pEXJ.HR-TL231) (human). Kind of test: cell-based or functional assay. This is another data set of the same source.
Test [6] concerns the target mutant human MCH1 receptor encoded by plasmid R114 (M6A, M70A) (human) (UniProt Q99705). The test can be described thus: cell-based or functional assay.
Chain of UniProt Q99705 (Q99705 whole entry, stated change not applied): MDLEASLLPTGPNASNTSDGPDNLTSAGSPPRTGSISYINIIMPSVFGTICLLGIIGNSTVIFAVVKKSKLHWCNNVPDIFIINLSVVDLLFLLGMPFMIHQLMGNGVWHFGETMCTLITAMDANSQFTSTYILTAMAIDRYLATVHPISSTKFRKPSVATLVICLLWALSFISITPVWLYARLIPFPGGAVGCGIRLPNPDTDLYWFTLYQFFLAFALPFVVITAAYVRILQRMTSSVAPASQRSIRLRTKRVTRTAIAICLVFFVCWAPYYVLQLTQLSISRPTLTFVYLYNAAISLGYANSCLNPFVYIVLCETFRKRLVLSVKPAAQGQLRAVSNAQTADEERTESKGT

Chain of human MCH1 receptor (MCH1) encoded by plasmid TL231 (pEXJ.HR-TL231) (human) (chain, as listed by the source limits assumed): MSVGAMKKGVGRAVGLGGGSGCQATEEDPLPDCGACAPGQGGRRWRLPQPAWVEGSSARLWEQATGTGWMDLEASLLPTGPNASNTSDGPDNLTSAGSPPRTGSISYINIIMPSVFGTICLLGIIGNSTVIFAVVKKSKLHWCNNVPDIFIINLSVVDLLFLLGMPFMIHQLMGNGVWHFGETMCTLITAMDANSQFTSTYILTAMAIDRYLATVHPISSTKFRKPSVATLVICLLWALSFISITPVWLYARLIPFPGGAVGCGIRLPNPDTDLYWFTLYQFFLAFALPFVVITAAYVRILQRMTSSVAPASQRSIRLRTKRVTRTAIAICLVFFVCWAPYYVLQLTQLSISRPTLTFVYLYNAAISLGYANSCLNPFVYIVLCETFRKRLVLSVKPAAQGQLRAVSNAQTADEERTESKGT

As for “Phe^13,Tyr^19-MCH (from UniProt P20382 147-165) (peptide)”, in test [1], the EC50 of extracellular acidification rate (microphysiometer), CHO cells transiently transfected with MCH1 was found to be 51.8 nM.

In test [2], “[^125I]Phe^13,Tyr^19-MCH (from UniProt P20382 147-165) (peptide)” yielded a specific binding as percent of total binding (% of total binding) of 70. The specific binding (fmol/mg membrane protein) in test [3] stood at 80.

With DFDMLRCMLGRVYRPCWQV (peptide, UniProt P20382 147-165, looked up) [melanin concentrating hormone (MCH)], in test [4], the EC50 (nM), mobilization of intracellular calcium (FLIPR, fluo-3), COS-7 cells is 3.5 nM; the Max. Response (RFU), mobilization of intracellular calcium (FLIPR, fluo-3), COS-7 cells is 30000 RFU and 25000 RFU. In addition, in test [5], the EC50 (nM), mobilization of intracellular calcium (FLIPR, fluo-3), COS-7 cells amounted to 60 nM; the inositol phosphate (IP) production, Cos-7 cells co-transfected with MCH1 and a G alpha subunit, 10 µM MCH came to 1.4 fold. The Max. Response (RFU), mobilization of intracellular calcium (FLIPR, fluo-3), COS-7 cells in test [6] was 2270 RFU and 1550 RFU.

The values are drawn from patent US20020111306A1.
